Data set [1] deals with PC-3 xenografts. In words: PC-3 human prostate cancer xenograft model. It counts as in vivo, NOD/SCID mice. The procedure:
Procedures involving animals and their care were conducted according to the guidelines of the Academia Sinica Institutional Animal Care and Utilization Committee in compliance with national and international laws and policies. Non-obese diabetic-severe combined immunodeficiency (NOD/SCID) mice were purchased from the National Laboratory Animal Center (Taiwan). The human prostate cancer xenograft tumor model was developed by subcutaneously injecting 2×10^6 PC-3 cells into the dorsal flank of a six-week old male mouse. Animals were monitored daily for general health, and body weights were measured twice weekly. Tumor size was measured with slide calipers and calculated as length×width^2×0.52. […] An antibody dose of 20 mg/kg was injected twice a week for four weeks. For combination therapy, docetaxel (ScinoPharm Taiwan) was also intravenously administered at a dose of 5 mg/kg once a week for three weeks. At the end of the experiment, tumor tissue and visceral organs were removed and fixed for histological analysis.
For tumor blood vessel studies, samples were fixed in OCT. Frozen blocks were cut into 50 μm sections, and frozen tumor tissue sections were fixed with 1% paraformaldehyde, permeabilized with 0.1% TRITON™-X 100, blocked with normal horse serum (Vector), and then incubated for 1 hour at room temperature (RT) with a 1:100 dilution of the primary antibody (rat anti-mouse CD31 (PECAM-1); BD Bioscience). Subsequently, the tissue sections were incubated with Alexa 549-conjugated goat anti-rat antibody (Invitrogen) at room temperature for 1 hour. Nuclei were stained with DAPI, and sections were then mounted with fluorescent mounting solution. Immunofluorescent images were acquired using a Zeiss Axiovert 200M microscope. Positive areas of CD31 endothelial cells were quantified by pixel area counting and normalized with DAPI staining using ImageJ software under low power magnification.
The frozen tumor tissue sections were fixed with 1% paratbrmaldehyde and permeabilized with 0.1% TRITON™-X 100, before being incubated with terminal deoxynucleotidyltransferase-mediated dUTP nick end labeling reaction mixture (Roche Diagnostics) at 37° C. for 1 hour. After washing three times with PBS, the slides were incubated with FITC-anti-DIG antibody (1:2000) and DAPI (1:500). Slides were mounted with mounting solution and visualized under a fluorescent microscope. Slides were independently examined by three individuals. Areas with TUNEL-positive cells were quantified by pixel area counting, and normalized to DAPI staining using ImageJ software.

The test system of data set [2] is HL-60 leukemia xenografts. In words: HL-60 leukemia xenograft model. In kind it is in vivo, NSG mice. The method, then: For systemic leukemia engraftment studies, NOD/SCID/IL2Rγ−/− (NSG) mice were obtained from the Animal Center of the Institute of Cellular and Organismic Biology, Academia Sinica. Six-week old females were intravenously injected with 5×10^6 HL-60 cells through the tail vein. Animals were monitored daily for general health, and body weights were measured twice weekly. […] Mice were observed daily for signs of toxicity, and the survival times were recorded. At the end-point of treatment, the visceral organs of each mouse were removed and fixed for further histological examination.
Tumors and indicated organs were dissected from mice and fixed in 4% paraformaldehyde overnight. Fixation and processing of specimens were performed in accordance with standard procedures. The specimens were embedded in paraffin and cut into […] sections. Rehydrated paraffin-embedded tissue sections were stained with Mayer's hematoxylin solution (Wako) for 5 minutes and washed with water for 1-2 minutes. The slides were then stained with eosin solution (Wako) for 10 minutes. Tissues were visualized with Tissue Gnostics microscopes.

For data set [3], the target named is murine VEGFR2 protein (Mus musculus, UniProt P35918, DEL223-227). In words: Cross-reactivity with murine VEGFR2. In kind it is binding.
Sequence of murine VEGFR2 protein (P35918 with tags, fused parts or gaps DEL223-227): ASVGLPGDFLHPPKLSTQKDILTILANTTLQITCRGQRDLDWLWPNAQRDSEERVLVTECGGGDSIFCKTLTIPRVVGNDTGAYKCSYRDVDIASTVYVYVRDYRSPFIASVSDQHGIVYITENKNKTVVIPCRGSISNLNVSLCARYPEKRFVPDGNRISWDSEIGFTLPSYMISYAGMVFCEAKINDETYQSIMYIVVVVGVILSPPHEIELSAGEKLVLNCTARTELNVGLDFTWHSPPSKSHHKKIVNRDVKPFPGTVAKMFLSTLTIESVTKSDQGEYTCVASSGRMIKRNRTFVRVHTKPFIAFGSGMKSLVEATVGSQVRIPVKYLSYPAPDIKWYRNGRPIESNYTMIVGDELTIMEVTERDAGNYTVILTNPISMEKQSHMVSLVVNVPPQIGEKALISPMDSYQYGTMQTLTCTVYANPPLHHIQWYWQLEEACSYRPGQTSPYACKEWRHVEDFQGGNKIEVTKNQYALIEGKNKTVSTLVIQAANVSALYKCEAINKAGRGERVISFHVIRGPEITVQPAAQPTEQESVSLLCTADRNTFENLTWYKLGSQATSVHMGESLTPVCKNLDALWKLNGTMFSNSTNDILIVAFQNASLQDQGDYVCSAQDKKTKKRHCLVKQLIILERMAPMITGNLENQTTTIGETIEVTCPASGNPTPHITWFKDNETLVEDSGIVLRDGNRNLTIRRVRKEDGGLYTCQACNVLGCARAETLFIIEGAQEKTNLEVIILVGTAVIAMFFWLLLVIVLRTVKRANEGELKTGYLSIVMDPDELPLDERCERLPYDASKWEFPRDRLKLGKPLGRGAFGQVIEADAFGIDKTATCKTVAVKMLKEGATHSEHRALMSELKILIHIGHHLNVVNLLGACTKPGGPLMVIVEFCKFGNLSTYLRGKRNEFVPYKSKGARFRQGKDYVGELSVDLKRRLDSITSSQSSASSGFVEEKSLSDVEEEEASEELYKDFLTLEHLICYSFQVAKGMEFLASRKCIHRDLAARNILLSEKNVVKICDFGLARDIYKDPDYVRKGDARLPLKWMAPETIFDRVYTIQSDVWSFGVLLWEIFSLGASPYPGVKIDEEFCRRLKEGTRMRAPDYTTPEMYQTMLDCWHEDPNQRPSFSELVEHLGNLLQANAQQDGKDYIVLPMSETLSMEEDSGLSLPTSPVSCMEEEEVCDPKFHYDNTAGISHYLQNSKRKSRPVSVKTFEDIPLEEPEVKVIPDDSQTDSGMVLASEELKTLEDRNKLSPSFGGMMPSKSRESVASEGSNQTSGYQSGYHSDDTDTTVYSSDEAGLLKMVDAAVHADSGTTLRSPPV
The test system of data set [4] is VEGFR2 signaling pathway. The data set can be described thus: Western blot of VEGF-A-induced phosphorylation in HUVECs. In kind it is cell-based, human. The settings on record: 100 nM antibody. The source says:
Western blots were pertbrmed using standard protocols, as previously described. The primary antibodies were purchased from Cell Signaling Technology and used at a 1,000-fold dilution for protein detection; the antibodies used are as follows: anti-VEGFR2 (clone 55B11), anti-phospho-VEGFR2 (Tyr1175; clone 19A10), anti-FAK, anti-phospho-FAK (Tyr397; cloneD20B1), anti-p42/44 MAPK, anti-phospho-p42/44 MAPK (Thr202/Tyr204; cloneD13.14.4E), anti-Akt, and anti-phospho-Akt (Ser473).

Data set [5] deals with T1, VEGFR2-Fc (Homo sapiens, UniProt P35968).
T1 construct: purchased R&D Systems
T1 sequence (P35968 with tags, fused parts or gaps limits assumed): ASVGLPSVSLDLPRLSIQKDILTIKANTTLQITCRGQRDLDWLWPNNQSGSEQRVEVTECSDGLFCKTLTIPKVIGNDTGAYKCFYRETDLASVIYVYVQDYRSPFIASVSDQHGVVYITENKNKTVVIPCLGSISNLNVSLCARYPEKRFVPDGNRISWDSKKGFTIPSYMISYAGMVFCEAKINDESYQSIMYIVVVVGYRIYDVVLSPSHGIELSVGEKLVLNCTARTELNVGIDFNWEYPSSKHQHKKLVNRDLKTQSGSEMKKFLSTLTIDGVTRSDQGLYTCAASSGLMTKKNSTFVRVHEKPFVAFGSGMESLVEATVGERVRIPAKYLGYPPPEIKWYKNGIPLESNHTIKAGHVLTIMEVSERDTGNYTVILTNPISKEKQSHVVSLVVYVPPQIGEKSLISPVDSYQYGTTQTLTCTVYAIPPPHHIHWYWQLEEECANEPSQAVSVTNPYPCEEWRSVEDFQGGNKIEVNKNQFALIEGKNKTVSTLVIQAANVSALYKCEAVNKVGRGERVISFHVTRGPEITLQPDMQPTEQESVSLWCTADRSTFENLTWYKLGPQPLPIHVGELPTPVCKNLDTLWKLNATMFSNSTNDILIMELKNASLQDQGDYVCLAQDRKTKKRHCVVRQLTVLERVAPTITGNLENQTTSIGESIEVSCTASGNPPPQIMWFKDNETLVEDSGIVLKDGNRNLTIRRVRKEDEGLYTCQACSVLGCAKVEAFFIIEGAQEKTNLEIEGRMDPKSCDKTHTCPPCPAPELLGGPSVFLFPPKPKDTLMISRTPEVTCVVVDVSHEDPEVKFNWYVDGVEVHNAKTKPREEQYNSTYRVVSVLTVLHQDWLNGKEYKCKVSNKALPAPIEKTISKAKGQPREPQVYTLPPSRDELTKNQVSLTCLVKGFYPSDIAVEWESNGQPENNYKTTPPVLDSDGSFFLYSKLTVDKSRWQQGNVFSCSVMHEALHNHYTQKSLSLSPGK
The data set can be described thus: Screening of anti-VEGFR2 phage clones by ELISA. In kind it is binding. As to conditions: 1×10^9 cfu phage titer. The method, then: (§1) The selected phages were further examined by ELISA screening. The 96-well plates were coated with 1 μg/ml of VEGFR2-Fc, Met-Fc (R&D), or BSA (Sigma) protein in 0.1 M sodium bicarbonate overnight at 4° C. After blocking with 1% BSA in PBS (w/v) for 2 hr at room temperature, 70-randomly selected phage clones were added to the plates at a 1:2 dilution in 1% BSA, and incubated for 1 hr at room temperature. Following washes with PBST, the plates were incubated with a 1:2000 dilution of horseradish peroxidase (HRP)-conjugated mouse anti-M13 phage antibody (GE) for 1 hr. After washing with PBST, the colorimetric reaction was developed with the peroxidase substrate ortho-phenylenediamine (OPD; Sigma) plus H2O2 for 15 min, and then terminated by the addition of 3 N HCl. The absorbance at 490 nm was determined using a microplate reader (SpectraMax, Molecular Devices). Plasmid DNA of positive clones were isolated and sequenced using the pCANTAB5 sequencing primer set.

The subject of data set [6] is Met-Fc. The data set can be described thus: Phage clone ELISA on control protein. It counts as binding. The method, then:
as §1

For data set [7], the system named is VEGFR2 on the cell surface of HUVEC. In words: Flow cytometry binding to HUVECs. As to conditions: FACS; 1×10^10 cfu. It counts as cell-based, human. The procedure:
About 1×10^4 HUVEC were incubated with the selected anti-VEGFR2 phage clones at 4° C. for 1 hour in FACS buffer (PBS containing 1% fetal bovine serum). After the cells were washed with FACS buffer, they were first incubated with mouse anti-M13 phage Ab for 1 hr at 4° C., and then with R-phycoerythrin-conjugated goat anti-mouse IgG (Jackson Immuno Research) for 30 min at 4° C. Flow cytometry was performed with a FACSCantoII (BD), and emission fluorescence intensity was measured with FACS Diva software (BD) to quantitatively compare binding affinities.

Data set [8] addresses T1, VEGFR2-Fc. In words: ELISA binding of R2S12 and R2S12-AF scFv to VEGFR2-Fc (affinity maturation). The method, then:
(A) Affinity maturation for R2S12. […] Subsequently, the beads were washed four times with PBS containing 1% TWEEN™ 20. After four rounds of biopanning, the recovery rate of the phages was increased by 929-fold over that of the first round. (B) Comparison of the binding activity of the indicated concentrations of R2S12 and R2S12-AF scFv to VEGFR2-Fc protein, as assayed by ELISA. Error bar, SE.
Affinity maturation was performed as previously described. […] This synthetic library was used to perform biopanning for VEGFR2-Fc-immobilized DYNABEADS®. After four to five rounds of stringent in vitro biopanning, positive clones were screened and identified by ELISA.

Where [9] appears, read: 20 mg/kg i.v. twice weekly from day 3.

For the molecule “IMC-1121B: FDA-approved anti-VEGFR2 human antibody (Ramucirumab), expressed by the applicant as human IgG1 [reference compound]”, the tumor growth reduction in data set [1] (by day 38, antibody 20 mg/kg i.v. twice a week, docetaxel 5 mg/kg i.v. once a week) stood at 45%. For the same molecule, the “changes in body weight during the treatment period” value in data set [1] (compared to the NHIgG group or docetaxel alone) is recorded as “no significant changes”. In addition, the “docetaxel-induced toxicity (body weight as surrogate)” value in data set [1] (in combination with docetaxel) is recorded as “do not enhance”. In data set [2] (setting [9]), this molecule gave a median survival of 43 days and a survival time of 56 days. Moreover, in data set [2] (n=9 per group), the “lymph nodes with leukemia infiltration” value is “five of nine”. Moreover, the “cross-reaction / binding to murine VEGFR2” value in data set [3] was “not”. Besides, the FAK phosphorylation result in data set [4] is listed as “only marginally reduced”.

B1: R2PC12: phage-displayed human scFv clone binding VEGFR2; VH CDR1-3 SEQ ID NO: 6-8, VL CDR1/CDR3 SEQ ID NO: 9, 10 (antibody, V domains shown)
VH: QVNLRESGGGLVKPGGSLRLSCAASGFTFGSYTMNWVRQAPGKGLEWVASITSGSSYIFYTDSVKGRFTISRDNSRSSLFLQMNSLRAEDTAIYYCARGSASAFDIWGQGTMVTVSS
VL: DIQMTQSPSSLSASVGDRVTITCKASDDIINYLNWYQQKPGEAPKLLIYDASILETGVPSRFSGSGSGTDFTFTISSLQPEDIATYYCQQYDILPLTFGGGTKLEIK
As for B1, in data set [5], the “binding of phage clones to VEGFR2-Fc” value is “bind highly”. Also, the “binding of phage clones to c-Met-Fc control protein” value in data set [6] is “not”. In addition, the “binding of phage clones to VEGFR2 on HUVEC cell surface” value in data set [7] is given as “greatest reactivity”.

B2: R2S12AF: affinity-matured scFv clone of R2S12; VH SEQ ID NO: 76, VL SEQ ID NO: 78, VL-CDR3 QQLDDIPIT (antibody, V domains shown)
VH: QVNLRESGGGLVKPGGSLRLSCAASGFTFGSYTMNWVRQAPGKGLEWVASITSGSSYIFYTDSVKGRFTISRDNSRSSLFLQMNSLRAEDTAIYYCARGSASAFDIWGQGTMVTVSS
VL: DIQMTQSPSSLSASVGDRVTITCKASDDIINYLNWYQQKPGEAPKLLIYDASILETGVPSRFSGSGSGTDFTFTISSLQPEDIATYYCQQLDDIPITFGGGTKLEIK
modifications: scFv linker; VH region of R2S12 or R2S12-AF; VL region of R2S12AF
Regarding B2, the “binding activity to VEGFR2-Fc compared with parental clone R2S12” value in data set [8] is on record as “superior binding activity”.

The record behind these values is patent US10196447B2, “Anti-vascular endothelial growth factor receptor 2 (VEGFR2) antibody and methods of use thereof for detecting VEGFR2 and for inhibiting tumor growth, tumor angiogenesis and/or inducing cancer cell cytotoxicity” (Academia Sinica, priority 2015, dated 2019).
